In the supplement of paper PMC9233669:
This sample holds only a part of the variants without activity.

What was measured:
biotinyl-Phe-oxazolone = assay: self-aminoacylation, catalytic enhancement (BFO) (fold over background); higher = more active; k-Seq, kA / k0A0; sequences stand for … in GGGAAUGGAUCCACAUCUACGAAUUC…UUCACUGCAGACUUGACGAAGCUG
Method in brief: (§1)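 Mutagenized RNA pools with a 21-nt variable region (0.43 μM) were reacted with each biotinyl-aminoacyl-oxazolone at 2–1250 μM for 90 minutes at room temperature, in 50 μL HEPES/NaCl/KCl/MgCl2/CaCl2 buffer containing 5% acetonitrile at pH 6.9–7.0. RNA captured on streptavidin was quantified by triplicate qPCR and by Illumina sequencing. The fraction reacted for each sequence was fit to a pseudo-first-order model with bootstrapping, and catalytic enhancement is the median kA divided by the uncatalyzed rate, taken as the low-activity peak of a bimodal Gaussian fit.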

biotinyl-Leu-oxazolone = assay: self-aminoacylation, catalytic enhancement (BLO) (fold over background); higher = more active; k-Seq, kA / k0A0; sequences stand for … in GGGAAUGGAUCCACAUCUACGAAUUC…UUCACUGCAGACUUGACGAAGCUG
Method in brief: as §1

biotinyl-Trp-oxazolone = assay: self-aminoacylation, catalytic enhancement (BWO) (fold over background); higher = more active; k-Seq, kA / k0A0; sequences stand for … in GGGAAUGGAUCCACAUCUACGAAUUC…UUCACUGCAGACUUGACGAAGCUG
Method in brief: as §1

biotinyl-Ile-oxazolone = assay: self-aminoacylation, catalytic enhancement (BIO) (fold over background); higher = more active; k-Seq, kA / k0A0; sequences stand for … in GGGAAUGGAUCCACAUCUACGAAUUC…UUCACUGCAGACUUGACGAAGCUG
Method in brief: as §1

biotinyl-Met-oxazolone = assay: self-aminoacylation, catalytic enhancement (BMO) (fold over background); higher = more active; k-Seq, kA / k0A0; sequences stand for … in GGGAAUGGAUCCACAUCUACGAAUUC…UUCACUGCAGACUUGACGAAGCUG
Method in brief: as §1

biotinyl-Val-oxazolone = assay: self-aminoacylation, catalytic enhancement (BVO) (fold over background); higher = more active; k-Seq, kA / k0A0; sequences stand for … in GGGAAUGGAUCCACAUCUACGAAUUC…UUCACUGCAGACUUGACGAAGCUG
Method in brief: as §1

| Sequence | self-aminoacylation (biotinyl-Phe-oxazolone) | self-aminoacylation (biotinyl-Leu-oxazolone) | self-aminoacylation (biotinyl-Trp-oxazolone) | self-aminoacylation (biotinyl-Ile-oxazolone) | self-aminoacylation (biotinyl-Met-oxazolone) | self-aminoacylation (biotinyl-Val-oxazolone) |
| --- | --- | --- | --- | --- | --- | --- |
| GUACACUUCAAGCAAUCGGUC [Fam1B.1 aminoacylation ribozyme variant] | 21.1 | 1.64 | 18.4 | 1.55 | 1.29 | 1.34 |
| GUACUUCAAACAAUCGCUCUG [Fam1A.1 aminoacylation ribozyme variant] | 3.1 | 1.88 | 3.76 | 1.77 | 1.91 | 1.71 |
| GUACUUCAAACAAUCGGCCUG [Fam1A.1 aminoacylation ribozyme variant] | 272 | 7.02 | 89.6 | 4.51 | 4.06 | 4.17 |
| GUACUUCAAACAAUCGGGCUG [Fam1A.1 aminoacylation ribozyme variant] | 21.1 | 2.67 | 14.6 | 3.02 | 2.47 | 2.8 |
| GUACUUCAAACAAUCUGUCUG [Fam1A.1 aminoacylation ribozyme variant] | 4.1 | 1.45 | 3.06 | 1.76 | 1.41 | 1.56 |
| GUACUUCAAACAUUCGGUCUG [Fam1A.1 aminoacylation ribozyme variant] | 6.13 | 1.66 | 2.34 | 1.63 | 1.6 | 1.96 |
| GUACUUCACACAAUCGGUCUG [Fam1A.1 aminoacylation ribozyme variant] | 1.5 | 1.11 | 1.67 | 1.34 | 1.02 | 1.3 |
| GUACUUCAGACAAUCGGUCUG [Fam1A.1 aminoacylation ribozyme variant] | 4.98 | 1.32 | 1.56 | 1.22 | 1.2 | 1.06 |
| GUCCACCUAGGUCAUCGGGUG [Fam2.2 aminoacylation ribozyme variant] | 35.1 | 4.46 | 6.85 | 4.43 | 4.1 | 4.67 |
| GUGACCCUGGUCAUCGAGUGA [Fam2.1 aminoacylation ribozyme variant] | 144 | 19.6 | 17.8 | 7.41 | 21.7 | 7.42 |
| GUGCUUCAAACAAUCGGUCUG [Fam1A.1 aminoacylation ribozyme variant] | 195 | 4.85 | 79.6 | 2.57 | 2.69 | 2.39 |
| GUUAACCUAGGUCAUCGGGUG [Fam2.2 aminoacylation ribozyme variant] | 77.3 | 16.1 | 12.7 | 7.79 | 11.9 | 6.73 |
| GUUAACCUGGUCAUCGAGUGA [Fam2.1 aminoacylation ribozyme variant] | 24.2 | 6.73 | 8.69 | 4.69 | 6.75 | 3.95 |
| GUUACCAUGGUCAUCGAGUGA [Fam2.1 aminoacylation ribozyme variant] | 28.3 | 9.59 | 10.3 | 5.01 | 8.11 | 5.22 |
| GUUACCCUGCUCAUCGAGUGA [Fam2.1 aminoacylation ribozyme variant] | 8.33 | 2.23 | 3.45 | 1.66 | 3.06 | 1.79 |
| GUUACCCUGGUCAGCGAGUGA [Fam2.1 aminoacylation ribozyme variant] | 42.9 | 6.76 | 7.95 | 4.8 | 6.72 | 4.05 |
| GUUACCCUGGUCAUCAAGUGA [Fam2.1 aminoacylation ribozyme variant] | 11 | 3.12 | 4.39 | 2.37 | 3.81 | 2.08 |
| GUUACCCUGGUCAUCGAGUAA [Fam2.1 aminoacylation ribozyme variant] | 93.6 | 21.8 | 18.7 | 6.86 | 22.6 | 7.98 |
| GUUACCCUGGUCAUCGAGUCA [Fam2.1 aminoacylation ribozyme variant] | 1.64 | 1.28 | 1.1 | 0.936 | 1.26 | 1.46 |
| GUUACCCUGGUCAUCGAGUGA [Fam2.1 aminoacylation ribozyme variant] | 747 | 100 | 101 | 35.2 | 99 | 38.3 |
| GUUACCCUGGUCAUCGAGUGC [Fam2.1 aminoacylation ribozyme variant] | 33.8 | 13 | 9.64 | 4.28 | 12.9 | 4.94 |
| GUUACCCUGGUCAUCGAGUUA [Fam2.1 aminoacylation ribozyme variant] | 23.1 | 11.1 | 10 | 4.48 | 12 | 5.21 |
| GUUACCCUGGUCAUCGCGUGA [Fam2.1 aminoacylation ribozyme variant] | 212 | 25.2 | 26.8 | 11.2 | 25.3 | 14.8 |
| GUUACCCUGGUCAUCGGGUGA [Fam2.1 aminoacylation ribozyme variant] | 503 | 92.1 | 90.7 | 30.9 | 89.7 | 36.7 |
| GUUACCCUGGUCAUGGAGUGA [Fam2.1 aminoacylation ribozyme variant] | 36.2 | 5.89 | 7.15 | 3.51 | 4.85 | 3.36 |
